Source: patent US7611713
pIC50: −log10 of the molar value.

Molecular target: HLA-B*0701 (as printed in the head of Table XXII) (human)
Assay: competitive inhibition of radiolabeled standard peptide binding to purified HLA

Substance: HBV ENV 313 analog with F at position 1 (peptide; other documents disagree on this pair)
- pIC50: 7.62
